The text below walks through data of article PMC7367873, “Dissecting the sequence determinants for dephosphorylation by the catalytic subunits of phosphatases PP1 and PP2A” (Nature Communications, 2020).

The chains are these.
B1: RNPC3 (protein, UniProt Q96LT9 1-517, looked up)
RNA-binding region-containing …: MAAPEQPLAISRGCTSSSSLSPPRGDRTLLVRHLPAELTAEEKEDLLKYFGAQSVRVLSDKGRLKHTAFATFPNEKAAIKALTRLHQLKLLGHTLVVEFAKEQDRVHSPCPTSGSEKKKRSDDPVEDDKEKKELGYLTVENGIAPNHGLTFPLNSCLKYMYPPPSSTILANIVNALASVPKFYVQVLHLMNKMNLPTPFGPITARPPMYEDYMPLHAPLPPTSPQPPEEPPLPDEDEELSSEESEYESTDDEDRQRMNKLMELANLQPKRPKTIKQRHVRKKRKIKDMLNTPLCPSHSSLHPVLLPSDVFDQPQPVGNKRIEFHISTDMPAAFKKDLEKEQNCEEKNHDLPATEVDASNIGFGKIFPKPNLDITEEIKEDSDEMPSECISRRELEKGRISREEMETLSVFRSYEPGEPNCRIYVKNLAKHVQEKDLKYIFGRYVDFSSETQRIMFDIRLMKEGRMKGQAFIGLPNEKAAAKALKEANGYVLFGKPMVVQFARSARPKQDPKEGKRKC
B2: DDX1 (protein, UniProt Q92499 1-740, looked up)
ATP-dependent RNA helicase …: MAAFSEMGVMPEIAQAVEEMDWLLPTDIQAESIPLILGGGDVLMAAETGSGKTGAFSIPVIQIVYETLKDQQEGKKGKTTIKTGASVLNKWQMNPYDRGSAFAIGSDGLCCQSREVKEWHGCRATKGLMKGKHYYEVSCHDQGLCRVGWSTMQASLDLGTDKFGFGFGGTGKKSHNKQFDNYGEEFTMHDTIGCYLDIDKGHVKFSKNGKDLGLAFEIPPHMKNQALFPACVLKNAELKFNFGEEEFKFPPKDGFVALSKAPDGYIVKSQHSGNAQVTQTKFLPNAPKALIVEPSRELAEQTLNNIKQFKKYIDNPKLRELLIIGGVAARDQLSVLENGVDIVVGTPGRLDDLVSTGKLNLSQVRFLVLDEADGLLSQGYSDFINRMHNQIPQVTSDGKRLQVIVCSATLHSFDVKKLSEKIMHFPTWVDLKGEDSVPDTVHHVVVPVNPKTDRLWERLGKSHIRTDDVHAKDNTRPGANSPEMWSEAIKILKGEYAVRAIKEHKMDQAIIFCRTKIDCDNLEQYFIQQGGGPDKKGHQFSCVCLHGDRKPHERKQNLERFKKGDVRFLICTDVAARGIDIHGVPYVINVTLPDEKQNYVHRIGRVGRAERMGLAISLVATEKEKVWYHVCSSRGKGCYNTRLKEDGGCTIWYNEMQLLSEIEEHLNCTISQVEPDIKVPVDEFDGKVTYGQKRAAGGGSYKGHVDILAPTVQELAALEKEAQTSFLHLGYLPNQLFRTF
B3: SND1 (protein, UniProt Q7KZF4 2-910, looked up)
Staphylococcal nuclease …: ASSAQSGGSSGGPAVPTVQRGIIKMVLSGCAIIVRGQPRGGPPPERQINLSNIRAGNLARRAAATQPDAKDTPDEPWAFPAREFLRKKLIGKEVCFTIENKTPQGREYGMIYLGKDTNGENIAESLVAEGLATRREGMRANNPEQNRLSECEEQAKAAKKGMWSEGNGSHTIRDLKYTIENPRHFVDSHHQKPVNAIIEHVRDGSVVRALLLPDYYLVTVMLSGIKCPTFRREADGSETPEPFAAEAKFFTESRLLQRDVQIILESCHNQNILGTILHPNGNITELLLKEGFARCVDWSIAVYTRGAEKLRAAERFAKERRLRIWRDYVAPTANLDQKDKQFVAKVMQVLNADAIVVKLNSGDYKTIHLSSIRPPRLEGENTQDKNKKLRPLYDIPYMFEAREFLRKKLIGKKVNVTVDYIRPASPATETVPAFSERTCATVTIGGINIAEALVSKGLATVIRYRQDDDQRSSHYDELLAAEARAIKNGKGLHSKKEVPIHRVADISGDTQKAKQFLPFLQRAGRSEAVVEYVFSGSRLKLYLPKETCLITFLLAGIECPRGARNLPGLVQEGEPFSEEATLFTKELVLQREVEVEVESMDKAGNFIGWLHIDGANLSVLLVEHALSKVHFTAERSSYYKSLLSAEEAAKQKKEKVWAHYEEQPVEEVMPVLEEKERSASYKPVFVTEITDDLHFYVQDVETGTQLEKLMENMRNDIASHPPVEGSYAPRRGEFCIAKFVDGEWYRARVEKVESPAKIHVFYIDYGNREVLPSTRLGTLSPAFSTRVLPAQATEYAFAFIQVPQDDDARTDAVDSVVRDIQNTQCLLNVEHLSAGCPHVTLQFADSKGDVGLGLVKEGLVMVEVRKEKQFQKVITEYLNAQESAKSARLNLWRYGDFRADDADEFGYSR
B4: HDAC4 (protein, UniProt P56524 1-1084, looked up)
Histone deacetylase 4: MSSQSHPDGLSGRDQPVELLNPARVNHMPSTVDVATALPLQVAPSAVPMDLRLDHQFSLPVAEPALREQQLQQELLALKQKQQIQRQILIAEFQRQHEQLSRQHEAQLHEHIKQQQEMLAMKHQQELLEHQRKLERHRQEQELEKQHREQKLQQLKNKEKGKESAVASTEVKMKLQEFVLNKKKALAHRNLNHCISSDPRYWYGKTQHSSLDQSSPPQSGVSTSYNHPVLGMYDAKDDFPLRKTASEPNLKLRSRLKQKVAERRSSPLLRRKDGPVVTALKKRPLDVTDSACSSAPGSGPSSPNNSSGSVSAENGIAPAVPSIPAETSLAHRLVAREGSAAPLPLYTSPSLPNITLGLPATGPSAGTAGQQDAERLTLPALQQRLSLFPGTHLTPYLSTSPLERDGGAAHSPLLQHMVLLEQPPAQAPLVTGLGALPLHAQSLVGADRVSPSIHKLRQHRPLGRTQSAPLPQNAQALQHLVIQQQHQQFLEKHKQQFQQQQLQMNKIIPKPSEPARQPESHPEETEEELREHQALLDEPYLDRLPGQKEAHAQAGVQVKQEPIESDEEEAEPPREVEPGQRQPSEQELLFRQQALLLEQQRIHQLRNYQASMEAAGIPVSFGGHRPLSRAQSSPASATFPVSVQEPPTKPRFTTGLVYDTLMLKHQCTCGSSSSHPEHAGRIQSIWSRLQETGLRGKCECIRGRKATLEELQTVHSEAHTLLYGTNPLNRQKLDSKKLLGSLASVFVRLPCGGVGVDSDTIWNEVHSAGAARLAVGCVVELVFKVATGELKNGFAVVRPPGHHAEESTPMGFCYFNSVAVAAKLLQQRLSVSKILIVDWDVHHGNGTQQAFYSDPSVLYMSLHRYDDGNFFPGSGAPDEVGTGPGVGFNVNMAFTGGLDPPMGDAEYLAAFRTVVMPIASEFAPDVVLVSSGFDAVEGHPTPLGGYNLSARCFGYLTKQLMGLAGGRIVLALEGGHDLTAICDASEACVSALLGNELDPLPEKVLQQRPNANAVRSMEKVMEIHSKYWRCLQRTTSTAGRSLIEAQTCENEEAETVTAMASLSVGVKPAEKRPDEEPMEEEPPL
B5: CYFIP1 (protein, UniProt Q7L576 1-1253, looked up)
Cytoplasmic FMR1-interacting …: MAAQVTLEDALSNVDLLEELPLPDQQPCIEPPPSSLLYQPNFNTNFEDRNAFVTGIARYIEQATVHSSMNEMLEEGQEYAVMLYTWRSCSRAIPQVKCNEQPNRVEIYEKTVEVLEPEVTKLMNFMYFQRNAIERFCGEVRRLCHAERRKDFVSEAYLITLGKFINMFAVLDELKNMKCSVKNDHSAYKRAAQFLRKMADPQSIQESQNLSMFLANHNKITQSLQQQLEVISGYEELLADIVNLCVDYYENRMYLTPSEKHMLLKVMGFGLYLMDGSVSNIYKLDAKKRINLSKIDKYFKQLQVVPLFGDMQIELARYIKTSAHYEENKSRWTCTSSGSSPQYNICEQMIQIREDHMRFISELARYSNSEVVTGSGRQEAQKTDAEYRKLFDLALQGLQLLSQWSAHVMEVYSWKLVHPTDKYSNKDCPDSAEEYERATRYNYTSEEKFALVEVIAMIKGLQVLMGRMESVFNHAIRHTVYAALQDFSQVTLREPLRQAIKKKKNVIQSVLQAIRKTVCDWETGHEPFNDPALRGEKDPKSGFDIKVPRRAVGPSSTQLYMVRTMLESLIADKSGSKKTLRSSLEGPTILDIEKFHRESFFYTHLINFSETLQQCCDLSQLWFREFFLELTMGRRIQFPIEMSMPWILTDHILETKEASMMEYVLYSLDLYNDSAHYALTRFNKQFLYDEIEAEVNLCFDQFVYKLADQIFAYYKVMAGSLLLDKRLRSECKNQGATIHLPPSNRYETLLKQRHVQLLGRSIDLNRLITQRVSAAMYKSLELAIGRFESEDLTSIVELDGLLEINRMTHKLLSRYLTLDGFDAMFREANHNVSAPYGRITLHVFWELNYDFLPNYCYNGSTNRFVRTVLPFSQEFQRDKQPNAQPQYLHGSKALNLAYSSIYGSYRNFVGPPHFQVICRLLGYQGIAVVMEELLKVVKSLLQGTILQYVKTLMEVMPKICRLPRHEYGSPGILEFFHHQLKDIVEYAELKTVCFQNLREVGNAILFCLLIEQSLSLEEVCDLLHAAPFQNILPRVHVKEGERLDAKMKRLESKYAPLHLVPLIERLGTPQQIAIAREGDLLTKERLCCGLSMFEVILTRIRSFLDDPIWRGPLPSNGVMHVDECVEFHRLWSAMQFVYCIPVGTHEFTVEQCFGDGLHWAGCMIIVLLGQQRRFAVLDFCYHLLKVQKHDGKDEIIKNVPLKKMVERIRKFQILNDEIITILDKYLKSGDGEGTPVEHVRCFQPPIHQSLASS
B6: SORBS2 (protein, UniProt O94875 1-1100, looked up)
Sorbin and SH3 …: MSYYQRPFSPSAYSLPASLNSSIVMQHGTSLDSTDTYPQHAQSLDGTTSSSIPLYRSSEEEKRVTVIKAPHYPGIGPVDESGIPTAIRTTVDRPKDWYKTMFKQIHMVHKPDDDTDMYNTPYTYNAGLYNPPYSAQSHPAAKTQTYRPLSKSHSDNSPNAFKDASSPVPPPHVPPPVPPLRPRDRSSTEKHDWDPPDRKVDTRKFRSEPRSIFEYEPGKSSILQHERPASLYQSSIDRSLERPMSSASMASDFRKRRKSEPAVGPPRGLGDQSASRTSPGRVDLPGSSTTLTKSFTSSSPSSPSRAKGGDDSKICPSLCSYSGLNGNPSSELDYCSTYRQHLDVPRDSPRAISFKNGWQMARQNAEIWSSTEETVSPKIKSRSCDDLLNDDCDSFPDPKVKSESMGSLLCEEDSKESCPMAWGSPYVPEVRSNGRSRIRHRSARNAPGFLKMYKKMHRINRKDLMNSEVICSVKSRILQYESEQQHKDLLRAWSQCSTEEVPRDMVPTRISEFEKLIQKSKSMPNLGDDMLSPVTLEPPQNGLCPKRRFSIEYLLEEENQSGPPARGRRGCQSNALVPIHIEVTSDEQPRAHVEFSDSDQDGVVSDHSDYIHLEGSSFCSESDFDHFSFTSSESFYGSSHHHHHHHHHHHRHLISSCKGRCPASYTRFTTMLKHERARHENTEEPRRQEMDPGLSKLAFLVSPVPFRRKKNSAPKKQTEKAKCKASVFEALDSALKDICDQIKAEKKRGSLPDNSILHRLISELLPDVPERNSSLRALRRSPLHQPLHPLPPDGAIHCPPYQNDCGRMPRSASFQDVDTANSSCHHQDRGGALQDRESPRSYSSTLTDMGRSAPRERRGTPEKEKLPAKAVYDFKAQTSKELSFKKGDTVYILRKIDQNWYEGEHHGRVGIFPISYVEKLTPPEKAQPARPPPPAQPGEIGEAIAKYNFNADTNVELSLRKGDRVILLKRVDQNWYEGKIPGTNRQGIFPVSYVEVVKKNTKGAEDYPDPPIPHSYSSDRIHSLSSNKPQRPVFTHENIQGGGEPFQALYNYTPRNEDELELRESDVIDVMEKCDDGWFVGTSRRTKFFGTFPGNYVKRL

In the first experiment the test system is GFP-14-3-3β and its binding proteins. Briefly: GFP-14-3-3β co-IP with LC-MS/MS label-free quantification, untreated versus PP1c-treated. Also on record: species or system human. Particulars: log2 difference; pairwise comparison PP1 vs untreated, label-free quantification, 3 replicates each.
On to B1, for which the “Difference (log2), PP1 vs untreated” value came to 5.4303.
Still for that read-out and setting: in the case of B2 it was 1.563; in that of B3, 1.5668.

Staying with this experiment, now noted: pairwise comparison PP1 vs untreated, student's t-test; 3 replicates each; LC-MS/MS label-free quantification.
Turning to B4, the “Difference (log2), PP1 vs untreated” value is listed as -2.1937 log2.
The same measure, in the same setting: in the case of B5 it was -2.17 log2; in that of B6, -2.05 log2.

In another experiment the test system is GFP-14-3-3β. Nature of the experiment: GFP-14-3-3β co-IP with LC-MS/MS, untreated GFP-14-3-3β versus GFP control (14-3-3 interactome). In kind it is binding, human. Particulars: log2 difference; pairwise comparison untreated vs GFP, label-free quantification, 3 replicates each.
With B1, the “Difference (log2), untreated vs GFP” value is on record as -2.187.
Take B2: the “Difference (log2), untreated vs GFP” value was -0.009417.
On the same count and under the same terms, to B3 belongs -0.5008.

The experiment is the same for the next values; noted with them: pairwise comparison untreated GFP-14-3-3β vs GFP, student's t-test; 3 replicates each; LC-MS/MS label-free quantification.
On to B4, for which the “Difference (log2), untreated vs GFP” value came out at 7.6192 log2.
As to B5, the “Difference (log2), untreated vs GFP” value worked out at 3.924 log2.
Same read-out and setting: in the case of B6 it was 3.7091 log2.
